This is an account of results in patent US20260008815A1, “CYCLIC PEPTIDE OR SALT THEREOF, AND USES THEREOF” (FUJIFILM Corporation, priority 2023, published 2026).

Bridge positions count the residues as written; N and C are the ends. Ends that are not written are not given here. COCH2 = acetyl group that carries the bridge

The target of the experiment is T1, Recombinant Human FGFR2 alpha (IIIc) Fc Chimera Protein, CF (R&D systems, 712-FR-050) (human, UniProt P21802 22-377).
T1 construct: bought; not shown: Fc part of the chimera
T1 sequence (P21802 22-377, change not shown): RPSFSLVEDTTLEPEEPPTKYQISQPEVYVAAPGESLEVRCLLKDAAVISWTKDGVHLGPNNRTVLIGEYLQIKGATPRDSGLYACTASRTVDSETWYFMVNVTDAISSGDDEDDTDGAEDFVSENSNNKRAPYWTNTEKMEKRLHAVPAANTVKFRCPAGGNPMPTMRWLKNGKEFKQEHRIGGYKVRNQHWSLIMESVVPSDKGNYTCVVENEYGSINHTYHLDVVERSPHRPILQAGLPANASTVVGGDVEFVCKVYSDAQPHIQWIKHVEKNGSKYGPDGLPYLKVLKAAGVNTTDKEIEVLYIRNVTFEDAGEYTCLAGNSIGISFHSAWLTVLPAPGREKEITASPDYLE
Nature of the experiment: ELISA on plate-bound FGFR2-Fc. The protocol:
First, 5 ng of Recombinant Human FGFR2 alpha (IIIc) Fc Chimera Protein (R&D systems, 712-FR-050) was immobilized in each well of a 96-well plate, and blocked with Pierce Protein-Free (PBS) Blocking Buffer (Thermo, 37572), and a peptide diluted with Can Get Signal Immunoreaction Enhancer Solution I (TOYOBO, NKB-101) was then added and reacted at room temperature for 3 hours. After washing with 0.05% Tween 20-containing phosphate buffered saline (PBS), an anti-Myc antibody (Cell Signaling, 14038S) diluted with Can Get Signal Immunoreaction Enhancer Solution II (TOYOBO, NKB-101) was added and reacted at room temperature for 2 hours. After washing with 0.05% Tween 20-containing PBS, SuperSignal ELISA Femto Substrate (Thermo, 37075) was added, and the luminescence amount was measured. The dose-response relationship was calculated from using the difference between the luminescence amount in the well in which FGFR was immobilized and the luminescence amount in the well in which FGFR was not immobilized, and the concentration of the peptide at the time of reaction, and the binding affinity to FGFR was evaluated according to the following evaluation criteria. The evaluation result preferably satisfies the evaluation criteria A, B, or C.
On the technique in general: ELISA stands for enzyme-linked immunosorbent assay.
For the molecule YCEWNYLDPEQYQYFIYFK(COCH2)Y (thioether 2-19 (inferred)) [cyclic peptide SEQ ID NO: 173], the “ELISA luminescence signal at 10 nmol/L peptide, relative to SEQ ID NO: 47 (=1)” value was not below 0.7 ratio.
YCEENYFDPEQYQYFIYFK(COCH2)Y (thioether 2-19 (inferred)) [cyclic peptide SEQ ID NO: 197]: the “ELISA luminescence signal at 10 nmol/L peptide, relative to SEQ ID NO: 47 (=1)” value is not below 0.7 ratio.
The result for YCEENYYDPEQYQYFIYFK(COCH2)Y (thioether 2-19 (inferred)) [cyclic peptide SEQ ID NO: 198] reads not below 0.7 ratio.
Regarding YCEENWLDPEQYQYFIYFK(COCH2)Y (thioether 2-19 (inferred)) [cyclic peptide SEQ ID NO: 188], the “ELISA luminescence signal at 10 nmol/L peptide, relative to SEQ ID NO: 47 (=1)” value was not below 0.7 ratio.
YCEEWYLDPEQYQYFIYFK(COCH2)Y (thioether 2-19 (inferred)) [cyclic peptide SEQ ID NO: 182]: the “ELISA luminescence signal at 10 nmol/L peptide, relative to SEQ ID NO: 47 (=1)” value fell in the range of 0.1 to 0.5 ratio.
The figure for YCEENNLDPEQYQYFIYFK(COCH2)Y (thioether 2-19 (inferred)) [cyclic peptide SEQ ID NO: 189] is 0.5 to 0.7 ratio; for YCEETYLDPEQYQYFIYFK(COCH2)Y (thioether 2-19 (inferred)) [cyclic peptide SEQ ID NO: 185] it is 0.1 to 0.5 ratio.
Consider YCEENYSDPEQYQYFIYFK(COCH2)Y (thioether 2-19 (inferred)) [cyclic peptide SEQ ID NO: 202], for which the “ELISA luminescence signal at 10 nmol/L peptide, relative to SEQ ID NO: 47 (=1)” value is 0.5 to 0.7 ratio.
In the case of YCEEQYLDPEQYQYFIYFK(COCH2)Y (thioether 2-19 (inferred)) [cyclic peptide SEQ ID NO: 183], the “ELISA luminescence signal at 10 nmol/L peptide, relative to SEQ ID NO: 47 (=1)” value lay within 0.1 to 0.5 ratio.
As to YCEENYHDPEQYQYFIYFK(COCH2)Y (thioether 2-19 (inferred)) [cyclic peptide SEQ ID NO: 206], the “ELISA luminescence signal at 10 nmol/L peptide, relative to SEQ ID NO: 47 (=1)” value is not below 0.7 ratio.
For the molecule YCEENYRDPEQYQYFIYFK(COCH2)Y (thioether 2-19 (inferred)) [cyclic peptide SEQ ID NO: 205], the “ELISA luminescence signal at 10 nmol/L peptide, relative to SEQ ID NO: 47 (=1)” value is not below 0.7 ratio.
Take YCEENYLFPEQYQYFIYFK(COCH2)Y (thioether 2-19 (inferred)) [cyclic peptide SEQ ID NO: 211]: the “ELISA luminescence signal at 10 nmol/L peptide, relative to SEQ ID NO: 47 (=1)” value is not below 0.7 ratio.
As for YCEENYEDPEQYQYFIYFK(COCH2)Y (thioether 2-19 (inferred)) [cyclic peptide SEQ ID NO: 204], the “ELISA luminescence signal at 10 nmol/L peptide, relative to SEQ ID NO: 47 (=1)” value fell in the range of 0.1 to 0.5 ratio.
In the case of YCEENFLDPEQYQYFIYFK(COCH2)Y (thioether 2-19 (inferred)) [cyclic peptide SEQ ID NO: 187], the “ELISA luminescence signal at 10 nmol/L peptide, relative to SEQ ID NO: 47 (=1)” value is not below 0.7 ratio.
YCEENYLGPEQYQYFIYFK(COCH2)Y (thioether 2-19 (inferred)) [cyclic peptide SEQ ID NO: 207]: the “ELISA luminescence signal at 10 nmol/L peptide, relative to SEQ ID NO: 47 (=1)” value was not below 0.7 ratio.
As for YCEENYVDPEQYQYFIYFK(COCH2)Y (thioether 2-19 (inferred)) [cyclic peptide SEQ ID NO: 196], the “ELISA luminescence signal at 10 nmol/L peptide, relative to SEQ ID NO: 47 (=1)” value was not below 0.7 ratio.
Regarding YCEENLLDPEQYQYFIYFK(COCH2)Y (thioether 2-19 (inferred)) [cyclic peptide SEQ ID NO: 186], the “ELISA luminescence signal at 10 nmol/L peptide, relative to SEQ ID NO: 47 (=1)” value lay in the range of 0.1 to 0.5 ratio.
On to YCEEGYLDPEQYQYFIYFK(COCH2)Y (thioether 2-19 (inferred)) [cyclic peptide SEQ ID NO: 181], for which the “ELISA luminescence signal at 10 nmol/L peptide, relative to SEQ ID NO: 47 (=1)” value lay in the range of 0.5 to 0.7 ratio.
The figure for YCEENYLVPEQYQYFIYFK(COCH2)Y (thioether 2-19 (inferred)) [cyclic peptide SEQ ID NO: 210] is 0.1 to 0.5 ratio; for YCERNYLDPEQYQYFIYFK(COCH2)Y (thioether 2-19 (inferred)) [cyclic peptide SEQ ID NO: 179] it is not below 0.7 ratio.
In the case of YCEESYLDPEQYQYFIYFK(COCH2)Y (thioether 2-19 (inferred)) [cyclic peptide SEQ ID NO: 184], the “ELISA luminescence signal at 10 nmol/L peptide, relative to SEQ ID NO: 47 (=1)” value was in the range of 0.1 to 0.5 ratio.
For the molecule YCEENYTDPEQYQYFIYFK(COCH2)Y (thioether 2-19 (inferred)) [cyclic peptide SEQ ID NO: 203], the “ELISA luminescence signal at 10 nmol/L peptide, relative to SEQ ID NO: 47 (=1)” value is not below 0.7 ratio.
With YCEENDLDPEQYQYFIYFK(COCH2)Y (thioether 2-19 (inferred)) [cyclic peptide SEQ ID NO: 192], the “ELISA luminescence signal at 10 nmol/L peptide, relative to SEQ ID NO: 47 (=1)” value is 0.1 to 0.5 ratio.
Turning to YCEENRLDPEQYQYFIYFK(COCH2)Y (thioether 2-19 (inferred)) [cyclic peptide SEQ ID NO: 193], the “ELISA luminescence signal at 10 nmol/L peptide, relative to SEQ ID NO: 47 (=1)” value is 0.1 to 0.5 ratio.
With YCENNYLDPEQYQYFIYFK(COCH2)Y (thioether 2-19 (inferred)) [cyclic peptide SEQ ID NO: 174], the “ELISA luminescence signal at 10 nmol/L peptide, relative to SEQ ID NO: 47 (=1)” value was not below 0.7 ratio.
Regarding YCEENQLDPEQYQYFIYFK(COCH2)Y (thioether 2-19 (inferred)) [cyclic peptide SEQ ID NO: 190], the “ELISA luminescence signal at 10 nmol/L peptide, relative to SEQ ID NO: 47 (=1)” value fell in the range of 0.1 to 0.5 ratio.
The result for YCEENYLLPEQYQYFIYFK(COCH2)Y (thioether 2-19 (inferred)) [cyclic peptide SEQ ID NO: 208] reads 0.1 to 0.5 ratio; that for YCESNYLDPEQYQYFIYFK(COCH2)Y (thioether 2-19 (inferred)) [cyclic peptide SEQ ID NO: 176], not below 0.7 ratio.
Regarding YCEENYLIPEQYQYFIYFK(COCH2)Y (thioether 2-19 (inferred)) [cyclic peptide SEQ ID NO: 209], the “ELISA luminescence signal at 10 nmol/L peptide, relative to SEQ ID NO: 47 (=1)” value fell in the range of 0.1 to 0.5 ratio.
With YCEENYQDPEQYQYFIYFK(COCH2)Y (thioether 2-19 (inferred)) [cyclic peptide SEQ ID NO: 201], the “ELISA luminescence signal at 10 nmol/L peptide, relative to SEQ ID NO: 47 (=1)” value was not below 0.7 ratio.
With YCEENYWDPEQYQYFIYFK(COCH2)Y (thioether 2-19 (inferred)) [cyclic peptide SEQ ID NO: 199], the “ELISA luminescence signal at 10 nmol/L peptide, relative to SEQ ID NO: 47 (=1)” value was not below 0.7 ratio.
Take YCEENHLDPEQYQYFIYFK(COCH2)Y (thioether 2-19 (inferred)) [cyclic peptide SEQ ID NO: 194]: the “ELISA luminescence signal at 10 nmol/L peptide, relative to SEQ ID NO: 47 (=1)” value was not below 0.7 ratio.
Take YCETNYLDPEQYQYFIYFK(COCH2)Y (thioether 2-19 (inferred)) [cyclic peptide SEQ ID NO: 177]: the “ELISA luminescence signal at 10 nmol/L peptide, relative to SEQ ID NO: 47 (=1)” value is not below 0.7 ratio.
The result for YCEQNYLDPEQYQYFIYFK(COCH2)Y (thioether 2-19 (inferred)) [cyclic peptide SEQ ID NO: 175] reads not below 0.7 ratio.
With YCEENYNDPEQYQYFIYFK(COCH2)Y (thioether 2-19 (inferred)) [cyclic peptide SEQ ID NO: 200], the “ELISA luminescence signal at 10 nmol/L peptide, relative to SEQ ID NO: 47 (=1)” value fell in the range of 0.1 to 0.5 ratio.
For YCEHNYLDPEQYQYFIYFK(COCH2)Y (thioether 2-19 (inferred)) [cyclic peptide SEQ ID NO: 180], the “ELISA luminescence signal at 10 nmol/L peptide, relative to SEQ ID NO: 47 (=1)” value is not below 0.7 ratio.
For the molecule YCEDNYLDPEQYQYFIYFK(COCH2)Y (thioether 2-19 (inferred)) [cyclic peptide SEQ ID NO: 178], the “ELISA luminescence signal at 10 nmol/L peptide, relative to SEQ ID NO: 47 (=1)” value was not below 0.7 ratio.
On to YCEENSLDPEQYQYFIYFK(COCH2)Y (thioether 2-19 (inferred)) [cyclic peptide SEQ ID NO: 191], for which the “ELISA luminescence signal at 10 nmol/L peptide, relative to SEQ ID NO: 47 (=1)” value was in the range of 0.1 to 0.5 ratio.
As to YCEENYIDPEQYQYFIYFK(COCH2)Y (thioether 2-19 (inferred)) [cyclic peptide SEQ ID NO: 195], the “ELISA luminescence signal at 10 nmol/L peptide, relative to SEQ ID NO: 47 (=1)” value was not below 0.7 ratio.
